Key:
Assay in all cases: NMR 15N-HSQC titration
KSRP KH4 = biological target: T1, KSRP KH4 (UniProt Q92945 423-525)
T1 sequence: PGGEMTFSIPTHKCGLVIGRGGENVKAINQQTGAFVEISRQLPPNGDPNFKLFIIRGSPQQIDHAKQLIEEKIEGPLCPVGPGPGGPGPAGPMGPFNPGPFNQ

KSRP KH2 = biological target: T2, KSRP KH2 (UniProt Q92945 233-305)
T2 sequence: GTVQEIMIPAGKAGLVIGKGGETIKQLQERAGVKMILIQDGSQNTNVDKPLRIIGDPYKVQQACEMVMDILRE

KSRP KH1 = biological target: T3, KSRP KH1 (UniProt Q92945 130-218)
T3 sequence: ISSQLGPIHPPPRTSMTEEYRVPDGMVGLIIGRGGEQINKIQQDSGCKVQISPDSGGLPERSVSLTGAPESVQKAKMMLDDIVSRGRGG

KSRP KH3 [1] = biological target: T4, KSRP KH3 (UniProt Q92945 323-418)
T4 sequence: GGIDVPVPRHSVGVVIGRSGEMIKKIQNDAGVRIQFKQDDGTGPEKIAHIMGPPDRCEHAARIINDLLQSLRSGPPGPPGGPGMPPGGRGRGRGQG

KSRP KH3 [2] = biological target: T4, KSRP KH3; remark: listed apart in the source
KSRP KH3 [3] = biological target: T4, KSRP KH3; remark: listed apart in the source

B1: uCCCC (ssRNA)
RNA: UCCCC
KSRP KH4
  binding result: no binding
KSRP KH2
  binding result: no binding
KSRP KH1
  binding result: no binding
KSRP KH3 [1]
  binding result: no binding

B2: UAGUAU (ssRNA)
RNA: UAGUAU
KSRP KH3 [2]
  Kd: 26 ± 5 µM

B3: UAGGUU (UAGGUA in Fig 4b legend) (ssRNA)
RNA: UAGGUU
KSRP KH3 [2]
  Kd: 6 ± 2 µM

B4: UAUUAU (ssRNA)
RNA: UAUUAU
KSRP KH3 [3]
  binding signal: ~100 fold weaker than UGGGU

Source: article PMC2532734
